Holding throughout (assay): cell-based or functional assay
Experiment [1] addresses N-type calcium channel formed by human brain α1B subunit together with rabbit β3 subunit, expressed in Xenopus oocytes (human; rabbit) (UniProt Q00975).
For experiment [2], the target named is rabbit cardiac α1C subunit, modified cDNA ΔN60 truncated by 60 amino acids at the N-terminal end, expressed in Xenopus oocytes (rabbit) (UniProt P15381).
Experiment [3] has as its target rat brain α1G subunit expressed from cRNA in Xenopus oocytes (rat) (UniProt O54898).
Chain of UniProt O54898 (O54898 whole entry): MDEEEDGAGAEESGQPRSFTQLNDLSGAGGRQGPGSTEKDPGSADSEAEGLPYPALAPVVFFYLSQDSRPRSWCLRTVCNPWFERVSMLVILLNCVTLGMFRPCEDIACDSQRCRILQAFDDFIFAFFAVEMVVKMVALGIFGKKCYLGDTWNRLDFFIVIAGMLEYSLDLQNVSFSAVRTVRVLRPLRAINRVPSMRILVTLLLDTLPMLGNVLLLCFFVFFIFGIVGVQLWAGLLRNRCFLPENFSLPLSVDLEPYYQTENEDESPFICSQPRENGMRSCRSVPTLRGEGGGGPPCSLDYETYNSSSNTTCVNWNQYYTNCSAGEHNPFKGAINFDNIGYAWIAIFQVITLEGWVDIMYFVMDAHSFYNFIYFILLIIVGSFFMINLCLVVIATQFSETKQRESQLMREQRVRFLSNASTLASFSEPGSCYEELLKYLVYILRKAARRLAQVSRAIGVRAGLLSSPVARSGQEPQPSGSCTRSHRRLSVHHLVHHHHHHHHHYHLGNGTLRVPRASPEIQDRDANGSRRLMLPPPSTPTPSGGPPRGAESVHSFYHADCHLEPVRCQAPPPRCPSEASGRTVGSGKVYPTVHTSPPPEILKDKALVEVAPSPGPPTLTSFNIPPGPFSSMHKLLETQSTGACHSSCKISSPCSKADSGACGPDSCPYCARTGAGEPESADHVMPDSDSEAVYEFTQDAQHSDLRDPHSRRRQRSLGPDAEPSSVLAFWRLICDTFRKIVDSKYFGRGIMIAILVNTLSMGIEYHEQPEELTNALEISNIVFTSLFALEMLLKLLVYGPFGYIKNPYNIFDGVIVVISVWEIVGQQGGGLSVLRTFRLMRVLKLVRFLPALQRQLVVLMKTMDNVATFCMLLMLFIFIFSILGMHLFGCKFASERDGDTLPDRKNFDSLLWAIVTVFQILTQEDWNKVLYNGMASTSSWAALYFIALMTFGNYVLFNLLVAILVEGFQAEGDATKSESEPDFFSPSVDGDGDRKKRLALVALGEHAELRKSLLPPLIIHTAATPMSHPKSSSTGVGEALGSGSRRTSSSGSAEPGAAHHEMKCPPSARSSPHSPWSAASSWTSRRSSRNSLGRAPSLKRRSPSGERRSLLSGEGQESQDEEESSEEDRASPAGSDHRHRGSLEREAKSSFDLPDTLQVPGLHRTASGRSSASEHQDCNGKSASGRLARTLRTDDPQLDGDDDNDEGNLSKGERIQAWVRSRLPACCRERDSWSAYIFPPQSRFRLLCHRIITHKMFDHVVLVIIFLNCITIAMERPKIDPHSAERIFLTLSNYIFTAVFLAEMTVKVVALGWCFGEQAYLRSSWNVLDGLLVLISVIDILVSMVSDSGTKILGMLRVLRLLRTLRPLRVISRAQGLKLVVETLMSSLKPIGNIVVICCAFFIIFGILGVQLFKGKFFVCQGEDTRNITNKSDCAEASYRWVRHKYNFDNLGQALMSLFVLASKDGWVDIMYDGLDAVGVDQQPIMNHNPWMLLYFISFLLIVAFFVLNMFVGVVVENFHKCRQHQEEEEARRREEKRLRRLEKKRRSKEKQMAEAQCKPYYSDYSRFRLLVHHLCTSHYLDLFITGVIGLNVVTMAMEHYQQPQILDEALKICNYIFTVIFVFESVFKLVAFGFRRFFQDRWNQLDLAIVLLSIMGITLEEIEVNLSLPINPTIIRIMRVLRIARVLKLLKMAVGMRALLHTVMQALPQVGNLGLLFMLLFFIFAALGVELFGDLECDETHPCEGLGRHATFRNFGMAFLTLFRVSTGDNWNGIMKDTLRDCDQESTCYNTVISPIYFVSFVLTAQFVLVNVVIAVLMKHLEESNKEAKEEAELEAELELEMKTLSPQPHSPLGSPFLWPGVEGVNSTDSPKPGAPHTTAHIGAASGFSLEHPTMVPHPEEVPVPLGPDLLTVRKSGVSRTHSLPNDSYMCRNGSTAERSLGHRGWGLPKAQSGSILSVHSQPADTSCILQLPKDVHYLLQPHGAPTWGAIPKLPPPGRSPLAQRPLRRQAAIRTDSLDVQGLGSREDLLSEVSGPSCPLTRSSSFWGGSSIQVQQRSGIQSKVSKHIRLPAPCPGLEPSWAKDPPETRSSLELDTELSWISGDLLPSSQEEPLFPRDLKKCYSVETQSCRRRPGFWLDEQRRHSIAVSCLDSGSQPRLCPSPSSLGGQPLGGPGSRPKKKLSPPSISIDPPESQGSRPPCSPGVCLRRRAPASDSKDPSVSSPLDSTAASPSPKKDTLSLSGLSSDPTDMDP

Chain of UniProt Q00975 (Q00975 whole entry, chain 1 of 2, the tested form may be a part): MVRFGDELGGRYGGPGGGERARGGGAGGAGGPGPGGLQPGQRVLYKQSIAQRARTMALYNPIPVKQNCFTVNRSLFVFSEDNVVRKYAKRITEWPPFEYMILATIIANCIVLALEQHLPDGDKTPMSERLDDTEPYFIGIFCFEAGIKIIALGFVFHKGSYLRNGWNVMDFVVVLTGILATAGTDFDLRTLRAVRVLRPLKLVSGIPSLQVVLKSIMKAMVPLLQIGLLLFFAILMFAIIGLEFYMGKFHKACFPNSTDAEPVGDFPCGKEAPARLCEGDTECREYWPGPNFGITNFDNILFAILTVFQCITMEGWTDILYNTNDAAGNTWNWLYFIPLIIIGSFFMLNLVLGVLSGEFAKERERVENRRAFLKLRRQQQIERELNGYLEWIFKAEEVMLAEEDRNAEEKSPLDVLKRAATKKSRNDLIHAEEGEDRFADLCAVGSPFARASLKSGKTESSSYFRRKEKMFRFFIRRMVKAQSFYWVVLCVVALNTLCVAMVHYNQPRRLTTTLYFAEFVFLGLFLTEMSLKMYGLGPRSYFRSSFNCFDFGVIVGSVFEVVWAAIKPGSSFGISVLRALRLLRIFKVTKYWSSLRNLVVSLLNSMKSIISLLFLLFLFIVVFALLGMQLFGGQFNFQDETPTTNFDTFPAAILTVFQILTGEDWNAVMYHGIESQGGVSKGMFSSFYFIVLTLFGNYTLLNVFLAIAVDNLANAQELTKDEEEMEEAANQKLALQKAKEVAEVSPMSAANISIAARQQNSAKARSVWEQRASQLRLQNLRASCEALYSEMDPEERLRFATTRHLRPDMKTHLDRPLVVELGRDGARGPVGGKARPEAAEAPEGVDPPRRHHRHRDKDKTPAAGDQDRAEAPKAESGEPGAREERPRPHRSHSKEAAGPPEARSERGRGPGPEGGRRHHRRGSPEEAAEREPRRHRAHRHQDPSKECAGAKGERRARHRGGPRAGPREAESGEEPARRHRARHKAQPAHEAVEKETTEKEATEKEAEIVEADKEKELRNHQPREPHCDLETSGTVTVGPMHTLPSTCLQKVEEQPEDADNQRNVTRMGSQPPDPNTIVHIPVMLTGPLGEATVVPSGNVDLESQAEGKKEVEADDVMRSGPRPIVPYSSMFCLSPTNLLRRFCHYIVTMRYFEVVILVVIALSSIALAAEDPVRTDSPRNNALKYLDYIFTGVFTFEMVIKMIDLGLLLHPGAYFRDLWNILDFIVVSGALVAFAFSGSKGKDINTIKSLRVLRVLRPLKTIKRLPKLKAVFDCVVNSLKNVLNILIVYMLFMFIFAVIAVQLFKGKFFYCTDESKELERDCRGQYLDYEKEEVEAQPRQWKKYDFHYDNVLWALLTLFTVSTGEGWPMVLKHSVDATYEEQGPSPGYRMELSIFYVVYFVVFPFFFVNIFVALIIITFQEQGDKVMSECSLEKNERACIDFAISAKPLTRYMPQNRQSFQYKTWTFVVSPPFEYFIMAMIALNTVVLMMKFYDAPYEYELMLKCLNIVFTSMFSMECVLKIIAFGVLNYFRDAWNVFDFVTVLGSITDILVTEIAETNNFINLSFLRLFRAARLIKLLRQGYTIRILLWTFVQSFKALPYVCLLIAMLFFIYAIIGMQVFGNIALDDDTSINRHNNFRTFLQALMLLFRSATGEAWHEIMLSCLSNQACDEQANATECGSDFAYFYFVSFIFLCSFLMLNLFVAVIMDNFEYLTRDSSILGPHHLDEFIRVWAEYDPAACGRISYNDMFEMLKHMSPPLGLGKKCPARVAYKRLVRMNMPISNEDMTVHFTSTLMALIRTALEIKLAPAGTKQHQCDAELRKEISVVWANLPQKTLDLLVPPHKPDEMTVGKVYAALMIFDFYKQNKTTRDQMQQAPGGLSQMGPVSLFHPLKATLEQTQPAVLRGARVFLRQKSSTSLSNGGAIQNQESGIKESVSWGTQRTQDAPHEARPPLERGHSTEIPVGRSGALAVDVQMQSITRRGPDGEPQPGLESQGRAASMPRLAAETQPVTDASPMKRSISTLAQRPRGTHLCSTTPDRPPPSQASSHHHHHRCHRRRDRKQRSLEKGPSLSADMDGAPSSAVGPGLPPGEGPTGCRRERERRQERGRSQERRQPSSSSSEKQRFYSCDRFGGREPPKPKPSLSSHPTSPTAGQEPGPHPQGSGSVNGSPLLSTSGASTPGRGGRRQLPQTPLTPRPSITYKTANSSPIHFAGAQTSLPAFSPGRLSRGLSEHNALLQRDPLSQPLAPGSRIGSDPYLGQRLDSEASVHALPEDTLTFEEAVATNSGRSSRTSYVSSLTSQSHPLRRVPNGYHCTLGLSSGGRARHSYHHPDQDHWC
Chain of UniProt Q00975 (P54286 whole entry, chain 2 of 2, further chain, the tested form may be a part): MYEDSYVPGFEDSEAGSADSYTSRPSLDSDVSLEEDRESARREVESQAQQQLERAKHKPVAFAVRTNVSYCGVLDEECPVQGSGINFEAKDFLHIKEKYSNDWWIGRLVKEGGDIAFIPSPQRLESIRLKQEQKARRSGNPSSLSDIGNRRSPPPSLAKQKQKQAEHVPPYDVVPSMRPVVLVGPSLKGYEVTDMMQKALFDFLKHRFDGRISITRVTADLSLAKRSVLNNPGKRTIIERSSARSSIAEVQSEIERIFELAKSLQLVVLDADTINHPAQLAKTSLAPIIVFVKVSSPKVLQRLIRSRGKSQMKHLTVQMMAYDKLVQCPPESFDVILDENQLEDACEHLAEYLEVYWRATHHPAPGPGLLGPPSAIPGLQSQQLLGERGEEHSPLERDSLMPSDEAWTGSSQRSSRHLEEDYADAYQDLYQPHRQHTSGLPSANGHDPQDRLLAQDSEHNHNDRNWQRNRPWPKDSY

As to “rabbit skeletal muscle α2δ-1 subunit expressed from cRNA in Xenopus oocytes (from UniProt P13806 27-1106)”, in experiment [1], the current remaining at the end of a 50 ms test pulse to +20 mV, percent of peak current (inactivation) (% of peak current) came out at 33; the fold increase of N-type current magnitude was 9 fold; the peak barium current (N-type), two-electrode voltage clamp in Xenopus oocytes amounted to 9.1 µA.
Turning to “α2δ-2 subunit expressed from cRNA in Xenopus oocytes (from UniProt Q9NY47 19-1150)”, in experiment [1], the current remaining at the end of a 50 ms test pulse to +20 mV, percent of peak current (inactivation) (% of peak current) is 59 and the peak barium current (N-type), two-electrode voltage clamp in Xenopus oocytes stood at 7.6 µA. The substance further registered a L-type peak current amplitude at +30 mV, α1C/α2δ-2 against α1C alone, Xenopus oocytes in experiment [2] of 201%. In addition, in experiment [3], the T-type current amplitude, α1G/α2δ-2 against α1G alone, Xenopus oocytes worked out at 176%.

For the origin of these results see patent US20030044911A1.
